Results on one substance are retold here after publication PMC5985231.

This test has as its target insulin receptor extracellular domain, short isoform (IR-A). As to the kind of experiment: SPR.

Bounds are passed on as bounds.

“insulin (from UniProt P01308 25-54; P01308 90-110) (ligand)” yielded a Kd of more than 122 nM.
